Results published in the DeepSol protein solubility set.

Assay: soluble on expression in E. coli; label from the status in PepcDB or PDB records

Question: For “MDIKIAQESFPILVAENIYHCGYHSEKSYGAASYLIQHSQGNILVDSPRFTPPLVKRIEAMGGIKYMYLTHQDDVADHQKFAEHFQCQRILHTDEISAGTRNVEIQLTGLEPFPLQPDVLIIPVPGHTKGHTVLLYKNKFLFTGDHLAWSENRHQLTAFRDVCWYSWAEQIKSMRRLADYSFDWVLPGHGRRFHADVETMRQQMHKCIELMTDERQPLTFNSLEHHHHHH”, which “soluble on expression in E. coli” value is on record?
Answer: not soluble

Question: For “MDIKRYCPVTDSELPADHVYFKFRSEIEAAEAYLGLAISEGIKVRETREILDIIDTVYNSLSDPESKLNDFQEKRLNFTEEDWYDIKEKANNGNRWSLYMFLARSAVDSAVYWSYRMKETEEFKEIVKEEMISKLLKAGYVILRESLGEVRL”, which “soluble on expression in E. coli” value is on record?
Answer: soluble

Question: Which “soluble on expression in E. coli” value does the source give for “MDINQNYREAVKTIKEAILRSQYRAATSVNKEQLSLYYGIGRYVSKNSRIGFWGKGAIEQISSLLQKELPGLRGFSTSNIKNMRVFYEEWEPVLNRQPLAGDLVLDEKLLLSVIRQPLADEFNWSDFFSIGFSHHTEIISKAKTLEARLFYIHECAIRYWSKYTLRDYLKADLYSHRGTLPNNFAQTLPDTKQALKAVCSFKDEYLLDFINVEELDEQEEDLDEKIVEKSIVANVKKFIMTFGQDFSFIGNQYRVEVAGEEMFIDLLFFNRELNSLVAVELKSGKFRSSYLGQLNTYLSALDSYVRKPHENPSIGIILCREMNQTFVEFAVRDYNKPMGVATYRTSKDMPERLRNALPDIEELRKLL” here?
Answer: not soluble

Question: For “MDIRQLQFFVAIVRFGSFTKAAERLRVAQPAVSMAMKRLEEELDLVLFNRQERKVSLTAEGEIFLRHAEKILEEVASTETEMEELRGLAKGEVRVGIPPMMSAYFFPQIIRDFSNRYPELHLSVSGEGASKIQKMILDGELDMGVIAGASFPDTLELRRFLREEVIVCVPKNHHLAEMERLPLQEFARHPLIFYKEGYYLRELVFDVMRGAGLNPAIRFETNLYTLVKSLIRKGMGISVFLRMVVEEDDDLEAIPLDPPLYLDLQIAWKKYGYLSRANRAFVDFLLEQSARAHQPVGSCPARLVPAG”, which “soluble on expression in E. coli” value is on record?
Answer: not soluble

Question: For “MDKFIKQLDPNLDYINHEINDGKCYITVASNRKEVTCPFCGQSSSRIHSTYNRIFQDLPIQGNKVFIIIRNRKMFCDNHDCSHTTFAERFDFISYKAKKTRRLEDEIVRLSINCSSVAASKALKENVVDIGKSTVCNLLKKETLVVDKKTVTVVCIDDFAIKKRKSYGTIMIDIFTHQILDMIDSRDYETVCEWLKTYPNLSVISRDGSVIYNNAIANAHPEALQISDRFHLLKNLTSYITEYLKKRLKPQVLIQAVSQETKEIKTIRQADENRKLTLKEKYEKIKQLLLEGKCKTEICRSLNMDIRAYDKLMAMTAEKREKSFQTKKMIIHEERVKQKMERVNEVRELKGIGLSNREISRRTGLNRKTVSRYLDENFNPVHAAYGKKRNGKLTPYIKAIDEYLEKGIMGSYIEEKIREMGYEGSSSTVRDYITDWKKRRKKYYDKSREDGTKTETIKRENILKLLYQPIEKSKNN”, which “soluble on expression in E. coli” value is on record?
Answer: soluble

Question: For “MDKIASDKDLREPDAGLLLNIFDLYYDLASAPAQYAAKRAHILEAAKKASTWHIRHVAPKYKNYVVVIGESARSDYMNVYGFPLPDTPFLSQTKGLLINGYQSTAHATNLSLPQTLGLPGEPNNNIVSLAKQAGFRTAWLSNQGMLGHFANEISTYALRSDYPWFTQRGDYGKSAGLSDRLLLPAFKRVLIGNAGTKPRLIVMHLMGSHSDFCTRLDKDARRFQYQTEKISCYVSTIAQTDKFLEDTVKILNENKESWSLVYFSDHGLMHVGKGGERTLTHGAWKRQSYGVPLVKISSDDTRREMIKVRRSAFNFLRGFGSWTGIETDELPDDGYDFWGNVPDVQGEGNNLAFIDGLPDDPAPWYAGKGKSTKNTSKK”, which “soluble on expression in E. coli” value is on record?
Answer: not soluble

Question: With “MDKKPLNTLISATGLWMSRTGTIHKIKHHEVSRSKIYIEMACGDHLVVNNSRSSRTARALRHHKYRKTCKRCRVSDEDLNKFLTKANEDQTSVKVKVVSAPTRTKKAMPKSVARAPKPLENTEAAQAQPSGSKFSPAIPVSTQESVSVPASVSTSISSISTGATASALVKGNTNPITSMSAPVQASAPALTKSQTDRLEVLLNPKDEISLNSGKPFRELESELLSRRKKDLQQIYAEERENYLGKLEREITRFFVDRGFLEIKSPILIPLEYIERMGIDNDTELSKQIFRVDKNFCLRPMLAPNLYNYLRKLDRALPDPIKIFEIGPCYRKESDGKEHLEEFTMLNFCQMGSGCTRENLESIITDFLNHLGIDFKIVGDSCMVYGDTLDVMHGDLELSSAVVGPIPLDREWGIDKPWIGAGFGLERLLKVKHDFKNIKRAARSESYYNGISTNL” as the sequence, how does the “soluble on expression in E. coli” value read?
Answer: soluble

Question: Which “soluble on expression in E. coli” value does the source give for “MDKKPSILIFIVAYNAESTIENVLMRIPADLLDDFDAEVLVIDDQSSDDTVLRCAETIQSGKIRFKTNVLVNPENQGYGGNQKVGYQYAIEHDFDCVALLHGDGQYAPEYLRDLITPVTKGEAEAVFGSRMMTPFGALKGGMPAYKFVGNKILTLFQNIMLKTSLSEFHSGYRAYSVKALKQIPFHLNTPDFHFDTEIIIQLILWGFRIAERPIPTYYGDEICYVNGLKYALDVVITTTKARMQRLGLFHECKYEVIHPHNSNGYPEAKLSIKSPSGNRILEHHHHHH” here?
Answer: not soluble

Question: Which “soluble on expression in E. coli” value does the source give for “MDKLSLEEKVDLLIENGIRILNKAYALEKKPVDMGHGVLLYPSEFHLIETAGKNPAENLTSISSRLGVTKGAISQMVKKLEKKGLVKKVRVPGNKKDVMLELTDFGREAFEWHKSLHESMEAGIRKELEGMSSSEMETFLRVYGHLERMLDRCMERYR” here?
Answer: not soluble

Question: Which “soluble on expression in E. coli” value does the source give for “MDLFLALRELGRPDQMNLSYLYLKKILEEELRDHDCQCQLNPDFTVTISCRVDGPHGALYIVPNSDFLKSSSFSDLSAFILNLREEIRRFGEFEAELQTGTG” here?
Answer: not soluble

Question: Which “soluble on expression in E. coli” value does the source give for “MDLFRKPKKRNAPVVRKKESSSDEDQDSEVKDVIQKRRRTNPMVQSTKQLDASTRRADNSSDDSDDSDDNQDIAVATHSFAASGDAGPSGPRDQGATATLEVDTDYSHDAQAQFERVQQQLKEGVEKDGKILYKGSALYGAKEAKDTAKGNAASGYNRVGPVRAPQFLRQTVRWDFAPDICKDYKETGFCTFGDSCKFVHDRSDYKHGWEIDEEYEAGKYGAEDDANYEIHEGDDTFPEDCFICGNPFVDPIVTKCKHYFCTGCALKSFQKSSKCPICQQNTENIMNTAKELLTYLKRKKQQQKQEAEKQEEEKDSDDDEKPHECDDHHHHDHEDEPEEPENDSNVPEAEEKSDEEQEIMMEDVEGLEGGENDSESDDDDAEKD” here?
Answer: soluble

Question: For “MDMKRRIHLELRNRTPAAVRELVLDNCKAMDGKIEGLTDEFVNLEFLSLISVGLFSVSDLPKLPKLKKLELSENRIFGGLDRLAEELPSLTHLNLSGNNLKDISTLEPLKRLDCLKSLDLFGCEVTNRSDYRETVFRLLPQLSYLDGYDREDQEAPDSDVEVDSVEEAPDSDGEVDGVDKEEEDEEGEDEEEEEDEDGEEEEDEDEEDEDEDEDVEGEDDEDEVSGEEEEFGHDGEVDEDEEDEDEDEDEEEEESGKGEKRKRETDDEGEDD”, which “soluble on expression in E. coli” value is on record?
Answer: soluble

Question: With “MDMPHSTTHDASPAPCQRCGMAGATCCTIDPTDASLCFPVSRSEWERIVDHCDKRGGFATEPNTRPFVDNLIRLFPGEAREIERLFPPHGFHLRLAVDAKGNCAFLGPEGCTLPREVRPWYCLVFPFWLQGGRIAIFTPSGCVAVREGRTVPGCLALMNFTARDVRRLAGRLRLAWGLPPLDENGETLLEHHHHHH” as the sequence, how does the “soluble on expression in E. coli” value read?
Answer: not soluble

Question: Which “soluble on expression in E. coli” value does the source give for “MDMPKPPFVIYKGKVEEEFARLHKDGKSLLKAESKFVQFLGLQELTDRACDHVELANPTKNTIIFNIRTPTSPCFFVKPHVGMIDPGGKATLYFTFKGRCHRVPSDYCWIYSIYQLVVDEKTTAFIKEDEFSSQNLRSAWIKHGRKQVNNILHLASSFKAGKPKFECRDGHRKFLERKIYLNDLGDVENSGKSKTENTTDITPANMKKGKLNKAASSDTMDDLPKTAD” here?
Answer: not soluble
